This note sets out measurements from paper doi:10.1101/2025.10.22.683813 (bioRxiv, 2025).

The series concerns the molecule itself. Nature of the series: SEC.

B1: NC-4 nucleocapsid subunit (other)
chain: MGNARTRRRERRAEKQAQWKAANAGAGAGAMATPHFDYNASVVSKGLANLSLELRKPVSFDIITADTLEQAIERAGTKHGNKGWEAALSAIEMANLYKSLRGTEHHHHLHGSSIEIYEGKLTAEGLRFGIVASRFNHTLVDRLVEGAIDCIVRHGGRGEDITLVRVPGAWEIPVAADELARKEDIDAVIAFGDLIRG
Take B1: the binding result is “binds”.
